The text below walks through data of the supplement of paper PMC9170038.

In this data set the test system is MS2 coat protein. Nature of the data set: apparent KD of MS2 coat protein; designed switch direction (-1 OFF switch, 1 ON switch): -1; higher = weaker reporter binding. A digest of the protocol:
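Stalled E. coli RNA polymerase transcribed designed RNA switches on Illumina chips, which were then titrated with SNAP-549-labelled MS2 coat protein, doubling from 0.7 or 1.5 nM to 3 µM. Steps lasted from 0.8–1.5 h at the lowest concentration to 10–20 min at the highest. The apparent KD is each design's median over clusters of curve-fitted normalised fluorescence.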

Where [1] appears, read: input ligand: microRNA oligo, concentration not stated.
Setting [2] is: Eterna round: R95, input ligand: FMN 200 uM.
Where [3] appears, read: Eterna round: R95, input ligand: microRNA oligo, concentration not stated.
Where [4] appears, read: Eterna round: R95, input ligand: none.

“GUUCCGCGAGGAUAUACAGACGGGUCCAAAACGUGUCUCGGACUUGAGGAUCACCCAAGUAGAAGGCGUUUCAG [salish99_ex2_r4_622] (Eterna round: R97, puzzle: Exclusion 2)”: the “apparent KD of MS2 coat protein” value is, setting by setting: (input ligand: FMN 200 uM) 20.4 nM; (input ligand: none) 22.1 nM.

In the case of “GUUCGUGAGAAGGAUAUGAUUCUGGAACAAGAGUUAGAAGGUUUCACAUGAGGAUCACCCAUGUCUAGAAAACC [Eternabot (Original) Solution 32] (Eterna round: R97, puzzle: Exclusion 6)”, the “apparent KD of MS2 coat protein” value is, setting by setting: (input ligand: FMN 200 uM) 12.2 nM; (input ligand: none) 10.7 nM.

Turning to “GUUGACUGAUGAGGAUAUUCAUAAGAAUGGGCCUUGGUUUUACAUGAGGAUCACCCAUGUUGACAGAAGAAGGCAUCAGUCUGA [Eternabot solution 28] (Eterna round: R96, puzzle: Exclusion NG 2)”, the “apparent KD of MS2 coat protein” value runs as follows: (input ligand: FMN 200 uM) 659 nM; under setting [1], 120 nM; (input ligand: none) 109 nM.

As to “GUUGUUUAUGUAGGAUAUGCCUGGCGUGCCUUUGCAGAAGGACAUGAGGAUCACCCAUGUAUUGCGGUCUGCGUUCAGAUCGCU [salish99_ExNG1_r4_022] (Eterna round: R96, puzzle: Exclusion NG 1)”, the “apparent KD of MS2 coat protein” value stood at 45.6 nM (input ligand: FMN 200 uM), 26.2 nM under setting [1] and 34.8 nM (input ligand: none).

On to “GUUUAGUGAGGAUAUGUGGCUUCGAUCGUGCGAAGGAGGCUACAGAAGGCACAUGAGGAUCACCCAUGUUCCUC [salish99_ex4_r4_302] (Eterna round: R97, puzzle: Exclusion 4)”, for which the “apparent KD of MS2 coat protein” value is, setting by setting: (input ligand: FMN 200 uM) 401 nM; (input ligand: none) 37.1 nM.

For “GUUUCACAUGAGGAUCACCCAUGUGAGGAUAUAAAUUUGUUAACCGUAGUUAAUAGAUUUAGAAGGCGCGUGAU [JR_Exc1_Sub001] (Eterna round: R97, puzzle: Exclusion 1)”, the “apparent KD of MS2 coat protein” value reads like this: (input ligand: FMN 200 uM) 68.2 nM; (input ligand: none) 63.1 nM.

Consider “GUUUGCACGCUGCGGUCCUACAUGAGGAUCACCCAUGUGGUCUGGUGGCGUGGGUCGCCGGACUUGGCUCGUCUUGA [salish99_S_TOV1_R5_038] (Eterna round: R97, puzzle: Sensor, turn-off variant 1)”, for which the “apparent KD of MS2 coat protein” value is, setting by setting: (input ligand: FMN 200 uM) 17.2 nM; (input ligand: none) 16.9 nM.

For “GUUUGCAGACGGAGAUCCUACAUGAGGAUCACCCAUGUCUCACUAGCUUUUUGCUCGUCUUAUCCUCCUCUGUUCUC [Elimod 27 - Jieux - Sensor, turn-off variant 1] (Eterna round: R97, puzzle: Sensor, turn-off variant 1)”, the “apparent KD of MS2 coat protein” value (input ligand: FMN 200 uM) stood at 260 nM and the “apparent KD of MS2 coat protein” value (input ligand: none) was 303 nM.

Turning to “GUUUUCAGACGGAGAUCCGACAUGAGGAUCACCCAUGUCUCACAAGCUUUUUGCUCGUCUUAUACUCCUCUGUUCUC [Elimod 43 - Jieux - Sensor, turn-off variant 1] (Eterna round: R97, puzzle: Sensor, turn-off variant 1)”, the “apparent KD of MS2 coat protein” value (input ligand: FMN 200 uM) stood at 16.9 nM and the “apparent KD of MS2 coat protein” value (input ligand: none) stood at 15.9 nM.

In the case of “GUUUUCAGACGGAGAUCCUACAUGAGGAUCACCCAUGUCUCUCUUGUUCCUUGCUCGUCUUUUCCUCCUCUGUUCUC [Elimod 33 - Jieux - Sensor, turn-off variant 1] (Eterna round: R97, puzzle: Sensor, turn-off variant 1)”, the “apparent KD of MS2 coat protein” value by setting is: (input ligand: FMN 200 uM) 657 nM; (input ligand: none) 847 nM.

On to “UAAAAGAAGGUCAGGAUAUGUAGUGAGCAAUCAGGACAGAAGGGACAUGAGGAUCACCCAUGUAACAGGGUAAA [Eninares] (puzzle: Brourd's mod of Exclusion 4)”, for which the “apparent KD of MS2 coat protein” value under setting [2] amounted to 104 nM, the “apparent KD of MS2 coat protein” value under setting [3] turned out to be 44.6 nM and the “apparent KD of MS2 coat protein” value under setting [4] came to 43.1 nM.

Consider “UAAAAGCUAGGAUAUACAUGAGGAUCACCCAUGUCAACCACACGGAUGCGCCGAGCAUGUAGAAGGAGCACCGG [Soora] (puzzle: Exclusion 3)”, for which the “apparent KD of MS2 coat protein” value under setting [3] came to 17 nM.

Consider “UAAAAGUCAGGAUAUACAUGAGGAUCACCCAUGUAAAAUUUUAAUUUAAUUUUAAGGUGUAGAAGGGACAAUUU [Ex3 #1] (Eterna round: R97, puzzle: Exclusion 3)”, for which the “apparent KD of MS2 coat protein” value by setting is: (input ligand: FMN 200 uM) 32.5 nM; (input ligand: none) 34.9 nM.

As for “UAAACUUGCUUCCGAUCCUACAUGAGGAUCACCCAUGUGCUCGUCUUGUAUCGUACUGUGACGUUAGUCACGGUACG [mod my first] (Eterna round: R97, puzzle: Sensor, turn-off variant 1)”, the “apparent KD of MS2 coat protein” value is, setting by setting: (input ligand: FMN 200 uM) 477 nM; (input ligand: none) 464 nM.

For the sequence “UAACCCGCGCGAGGAUAUCACAUGAGGAUCACCCAUGUGGCACUCCGUCACCGGGCAGUCCCGAGUGAGAAGGUGCAGGCGGGA [Bireisen] (Eterna round: R96, puzzle: Exclusion NG 2)”, the “apparent KD of MS2 coat protein” value turned out to be 62.8 nM (input ligand: FMN 200 uM), 22.1 nM under setting [1] and 26 nM (input ligand: none).

As to “UAACGGGUUUCUUCGUUUACAACAUGAGGAUCACCCAUGUUUGAGGAUAUCCACUAAGCUCUUCAGGAGAAGGCAAACAUAAUG [Teanarxe] (Eterna round: R96, puzzle: Exclusion NG 3)”, the “apparent KD of MS2 coat protein” value (input ligand: FMN 200 uM) was determined as 20.6 nM, the “apparent KD of MS2 coat protein” value under setting [1] came out at 12.2 nM and the “apparent KD of MS2 coat protein” value (input ligand: none) amounted to 15.4 nM.

For the sequence “UAACUACAUGAGGAUCACCCAUGUCAGGAUAUGCCGUUAAAUUAACAUCAACAUACGGGUAGAAGGGACAACGU [1st #3] (Eterna round: R97, puzzle: Exclusion 1)”, the “apparent KD of MS2 coat protein” value was determined as 31.5 nM (input ligand: FMN 200 uM) and 29.8 nM (input ligand: none).

For the sequence “UAAUACAAGCAAAGAUCCUACAUGAGGAUCACCCAUGUGUUCGUCUUAUAAAGUACUAUCACGAAAGUGAUAGUACA [Mat - Sensor v3 - turn-off var 1 - Eli Mod - D79] (puzzle: Sensor v3, turn-off variant 1)”, the “apparent KD of MS2 coat protein” value runs as follows: under setting [2], 81.6 nM; under setting [3], 12.3 nM; under setting [4], 110 nM.

Regarding “UAAUGCAAGCAAAGAUUCUACAUGAGGAUCACCCAUGUGCUCGUCUUAUAAAGUACUAUCACGAAAGUGAUAGUACA [Mat - Sensor v3 - turn-off var 1 - Eli Mod - D96] (puzzle: Sensor v3, turn-off variant 1)”, the “apparent KD of MS2 coat protein” value reads like this: under setting [2], 25.7 nM; under setting [3], 75.7 nM; under setting [4], 27.1 nM.

Regarding “UAAUGUAUAUAGGAUAUCUAGCUGGUAACAGCUAGAGAAGGAUGUACAUGAGGAUCACCCAUGUAAAUCAGUGA [Ex6/14-B2] (Eterna round: R97, puzzle: Exclusion 6)”, the “apparent KD of MS2 coat protein” value (input ligand: FMN 200 uM) was 186 nM and the “apparent KD of MS2 coat protein” value (input ligand: none) was found to be 41.6 nM.

Take “UAAUGUAUAUAGGAUAUCUAGCUGGUAACAGCUAGAGAAGGAUGUACAUGAGGAUCACCCAUGUAAAUCGAUCA [Ex6/11-A2] (Eterna round: R97, puzzle: Exclusion 6)”: the “apparent KD of MS2 coat protein” value by setting is: (input ligand: FMN 200 uM) 83.3 nM; (input ligand: none) 24.4 nM.

“UACACCACAUGAGGAUCAAACAUGAGGAUCACCCAUGUGUAGCAAGCUUUUUGCUCGUCUUAUAAAUAUGUGGUGUA [Electric Eye 7 - Jieux - Sensor, turn-off variant 1] (Eterna round: R97, puzzle: Sensor, turn-off variant 1)”: the “apparent KD of MS2 coat protein” value (input ligand: FMN 200 uM) is 11.7 nM and the “apparent KD of MS2 coat protein” value (input ligand: none) was found to be 11.9 nM.

As for “UACACCGCAUGAGGAUCAAACAUGAGGAUCACCCAUGUGUAGCAAGCUUUUUGCUCGUCUUAUAAAUAUGUGGUGUA [Electric Eye 9 - Jieux - Sensor, turn-off variant 1] (Eterna round: R97, puzzle: Sensor, turn-off variant 1)”, the “apparent KD of MS2 coat protein” value is, setting by setting: (input ligand: FMN 200 uM) 12.6 nM; (input ligand: none) 13 nM.

Consider “UACAUGAGGAUCACCCAUGUUUUGUCGUGUAUGGUACCCGUUUAGGAUAUCGUGUUAUUGGACCGCGAGAAGGAGAGUAUCAUU [Excl-NG3-LRO05] (Eterna round: R96, puzzle: Exclusion NG 3)”, for which the “apparent KD of MS2 coat protein” value (input ligand: FMN 200 uM) was found to be 24 nM, the “apparent KD of MS2 coat protein” value under setting [1] was 30 nM and the “apparent KD of MS2 coat protein” value (input ligand: none) turned out to be 31.6 nM.

For the sequence “UACAUGAGGAUCACCCAUGUUUUGUCGUGUAUGGUAUUUAUCUAGGAUAUCAAUUUAAUUAUUUAUGAGAAGGAGAAUAUUAAU [JMF's solution 17] (Eterna round: R96, puzzle: Exclusion NG 3)”, under setting [1], the “apparent KD of MS2 coat protein” value was 29.8 nM.

With “UACAUGAGGAUCACCCAUGUUUUGUCGUGUAUGGUAUUUAUCUAGGAUAUCAAUUUGUAUAUUUAUGAGAAGGAGAAUAUUAAU [JMF's solution 67] (Eterna round: R96, puzzle: Exclusion NG 3)”, the “apparent KD of MS2 coat protein” value under setting [1] amounted to 30.7 nM.

As for “UACAUGAGGAUCACCCAUGUUUUGUCGUGUAUGGUAUUUAUCUAGGAUAUCAUUUAAUUUAGUUAUGAGAAGGAGAAUAUUAAU [JMF's solution 85] (Eterna round: R96, puzzle: Exclusion NG 3)”, the “apparent KD of MS2 coat protein” value was determined as 31.3 nM (input ligand: FMN 200 uM), 17 nM under setting [1] and 27.8 nM (input ligand: none).

In the case of “UACAUGAGGAUCACCCAUGUUUUGUCGUGUAUGGUAUUUAUCUAGGAUAUCAUUUUAUUUAGGUAUGAGAAGGAGAAUAUUAAU [JMF's solution 93] (Eterna round: R96, puzzle: Exclusion NG 3)”, the “apparent KD of MS2 coat protein” value under setting [1] was 23.9 nM.

As to “UACCGGCGGACCGAAGCUUUUUGCUCGUCUUAUACUACAACAUGAGGAUCACCCAUGUGGUGGUGGUCCGUUGUAGU [JL ViennaUCT Bitein mod 4] (puzzle: Sensor v3, turn-off variant 2)”, the “apparent KD of MS2 coat protein” value under setting [2] worked out at 20.2 nM, the “apparent KD of MS2 coat protein” value under setting [3] worked out at 15.7 nM and the “apparent KD of MS2 coat protein” value under setting [4] came out at 13.5 nM.
